The Kd is a measure of binding affinity in units of concentration.

Here are results for 2 molecules from publication PMC3924863 (Cancer research, 2013).

Residue numbers refer to the chain shown, from its start.

The target in assay [1] is Fc-tagged HER4 extracellular domain (Homo sapiens (assumed), UniProt Q15303). In words: ELISA. (In general: ELISA stands for enzyme-linked immunosorbent assay.)
Assay [2] deals with Fc-tagged HER2 extracellular domain (Homo sapiens (assumed), UniProt P04626). The experiment in a line: ELISA.
For assay [3], the target named is Fc-tagged EGFR extracellular domain (Homo sapiens (assumed), UniProt P00533). The experiment in a line: ELISA.
For assay [4], the target named is recombinant monomeric cynomolgus monkey HER3 extracellular domain (cynomolgus monkey). In words: solution equilibrium titration.
For assay [5], the target named is recombinant monomeric rat HER3 extracellular domain (Rattus norvegicus, UniProt Q62799). The experiment in a line: solution equilibrium titration.
The target of assay [6] is T1, recombinant monomeric human HER3 extracellular domain (human, UniProt P21860). In words: solution equilibrium titration.
For assay [7], the target named is recombinant mouse HER3 extracellular domain (Mus musculus, UniProt Q61526). The experiment in a line: solution equilibrium titration.
For assay [8], the target named is isolated HER3 domains D3-4 (Homo sapiens, UniProt P21860). In words: ELISA.
In assay [9] the target is T1, recombinant monomeric human HER3 …. The experiment in a line: ELISA.

B1: LJM716 (antibody, V domains shown)
VH: EVQLLESGGGLVQPGGSLRLSCAASGFTFSSYAMSWVRQAPGKGLEWVSAINSQGKSTYYADSVKGRFTISRDNSKNTLYLQMNSLRAEDTAVYYCARWGDEGFDIWGQGTLVTVSS
VL: DIQMTQSPSSLSASVGDRVTITCRASQGISNWLAWYQQKPGKAPKLLIYGASSLQSGVPSRFSGSGSGTDFTLTISSLQPEDFATYYCQQYSSFPTTFGQGTKVEIK
Take B1: the binding result in [1], in [2] and in [3] was “no binding” throughout. In addition, the Kd is 0.043 nM in assay [4], 0.057 nM in assay [5], 0.032 nM in assay [6] and 0.037 nM in assay [7].

B2: MOR09825 Fab (Fab, V domains shown)
VH: B1 VH with E1Q, L5V
VL: B1 VL with T85V
Regarding B2, the binding result in assay [8] is “no binding”; in assay [9], “binds”.
